Assay: yeast display, Sf9 membrane polyspecificity reagent, FACS + sequencing; frameworks hold sequencing errors
How it was run: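 Galactose induction of a Saccharomyces cerevisiae BJ5465 synthetic nanobody display library ran 36–48 hours. The cells were then stained for 1 hour at 4 °C with 10% biotinylated, detergent-solubilized Sf9 membrane reagent, pulled down on streptavidin microbeads and FACS-sorted into low and high (top ~1%) gates on expression and reagent-binding fluorescence. Labels for polyreactivity follow the gate of origin.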

Sequence: QVQLVESGAGLVQAGGSLRLSCAASGSTFPVYAMGWYRQAPGKEREFVAAITYSGARTYYADSVKGRFTISRDNAKNTVYLQMNSLKPEDTAVYYCNAVPYRYLLHGTRCPFSRGYDSWGQGTQVTVSS
- polyreactivity (PSR sort gate): high polyreactivity

Sequence: QVQLVESGGGLVQAGGSLRLSCAASGSIFVKNVMGWYRQAPGKERELVAAISRGSSTYYADSVKGRFTISRDNAKNTVYLQMNSLKPEDTAVYYCAARGPYRLRNDEAFDYWGQGTQVTVSS
- polyreactivity (PSR sort gate): low polyreactivity

Sequence: QVQLVESGGGLVQAGGSLRLSCAASGSTFRYYTMGWYRQAPGKEREFVASISRSGGSTYYADSVKGRFTISRDNAKNTVYLQMNSLKPEDTAVYYCNAVKGSYSRSQGNEYWGQGTQVTVSS
- polyreactivity (PSR sort gate): high polyreactivity

Sequence: QDQLVESGGGLVQAGGSLRLSCASSVRTIYIYAMGWYRHPPGKESEFVASITGRGTRTYYADSVKGRFTISRDNAKNTVYLQMNSLTQEDTAVYYCNARGKVQSSYDEDYWGQGTQVTVSS
- polyreactivity (PSR sort gate): high polyreactivity

Sequence: QVQLVESRGGLVQEVGSLRLSCAASGRIFYRYYMGWYRQAPGKERELVASITRSGITHYADSVKGRFTISRDNATNTVYLQMNSLKPEDTAVYYCAVDLLRRGFPTVVTTYDYWGQGTQVTVSS
- polyreactivity (PSR sort gate): high polyreactivity

Sequence: QVQLVESGGGLVQAGGSLRLSCAASGRMFTHNVMGWYRQAPGKERELVAAISASGGSTYYADSVKGRFTISRDNAKNTVYLQMNSLKPEDTAVYYCNAGDYRTFYRRFDYWGQGTQVTVSS
- polyreactivity (PSR sort gate): low polyreactivity

Sequence: QVQLVESGGGLVQAGGSLRLSCAASGRIFGTYAMGWYIQAPGKERELVAGITWRTASTYYADSVKGRFTISRDNAKNTVYLQMNSLKPEDTAVYYCNADAWVWYYYYSYDYWGQGTQVTVSS
- polyreactivity (PSR sort gate): low polyreactivity

Sequence: QVQLVESGGGLVQAGGSLRLSCAASGFIFSWNAMGWYRQAPGKERELVAVITWSGSRTNYADSVKGRFTISRDNAKNTVYLQMNSLKPEDTAVYYCATKGPVYTSSRPVSGGAYNYWGQGTQVTVSS
- polyreactivity (PSR sort gate): low polyreactivity

Sequence: QVQLVESGGGLVQAAGSLRLSCAASGRILDFYDMGWYRQAPGKERELVAAITSGTSTYYADSVKGRFTISRDNAKNTVYLQMNSMKPEDTAVYYCAAAHVPVGQYVYWYDYWGQGTQVTVSS
- polyreactivity (PSR sort gate): low polyreactivity

Sequence: QVQLVESGGGLVQAGGSLRLSCAASGIISPFYAMGWYRPAPGNERELVADISTGGTTTYADSVKGRFTISRDNAKNTVYLKMNSLKPEDTAVYYCNAEVSLTYYWIVWASYDYWGQGTQVTVSS
- polyreactivity (PSR sort gate): low polyreactivity

Sequence: QVQLVESGGGLVQAGGSLRLSCAASGRIFPYYAMGWYRQAPGKERELVAVISTRGGSTYYADSVKGRFTISRDNAKNTVYLQMNSLKPEDTAVYYCAAKSVYRMGYWGQGTQVTVSS
- polyreactivity (PSR sort gate): high polyreactivity

Sequence: QVQRVESGGGLVQAGGSLRLSCAASGSTFIGYDMRWYRQAPGTERELVAAISYSDGTYYADSVKGRFTISRDNAKNTVYLQMNSLKPADTAVYYCAADSLYYRYDYWGQGPQVTVSS
- polyreactivity (PSR sort gate): low polyreactivity

Sequence: QVQLVESGGGLVQAGGSLRLSCAASGRTFQDNAMGWYRQAPGKERELVAAIRDNGGSTYYADSVKGRFTISRDNAKNTVYLQMNSLKPEDTAVYYCAADQGTGSYDYWGQGTQVTVSS
- polyreactivity (PSR sort gate): low polyreactivity

Sequence: QVQLVESGGGLVQAGGSLRLSCAASGRTFLVYTMGWYRQAPGKERELVAAISWSDGSTYYADSEKGRFTISRDNAKNTVYLQMNSLKPEDTAVYYCAARRTGYLYRYGYWGQGTQVTVSS
- polyreactivity (PSR sort gate): low polyreactivity

Sequence: QVQLVESGGGLVQAGGSLRLSCAASGSTFAYYAMGWYRQAPGKERELVAVISVRVGSTYYADSVKGRFTISRDNAKNTVYLQMNSLNPEDTAVYYCATDFFYHSLSSRQDGDYWGQGTQVTVSS
- polyreactivity (PSR sort gate): high polyreactivity

Sequence: QVQLVESGGGLVQAGGSLRLSCAASGSTFRYNDMGWYIQAPGKERELVDAITRSDSTNYADSVKGRFTISRDNAKNTVYLQMNSLKPEDTAVYYCAARRHYTYGNGPSRGGQMDYWGQGTQVTVSS
- polyreactivity (PSR sort gate): high polyreactivity

Sequence: QVQLVESGGGLFQAGGSLRLSCAASGNIFAYNAMGWYRQAPGKERELVASIRYSGGSTYYADSVKGRFTISRDNAKNTVYLQINSLKPEDTAVYYCAKRGYSSYRTYNYWGQGTQVTVSS
- polyreactivity (PSR sort gate): high polyreactivity

Sequence: QVQLVESGGGLVQAGGSLRLSCAASGIIFKGYAMGWYRQAPGKERELVAGITRNGGGTYYADSVKGRFTISRDNAKNTVYLQMNSLKPEDTAVYYCAARWDYSYRYRLYYWGQGTQVTVSS
- polyreactivity (PSR sort gate): high polyreactivity

Sequence: HVQLEESGRGLVQAGGSLRLSCAASGRTFTSNAIGWYRQAPGKERELVAVITSGGSTNYADSVKGRFTISRDNAMNTVYLQMNSLKPEDTAVYYCNARSGRGQAYGYWGQGTQVTVSS
- polyreactivity (PSR sort gate): high polyreactivity

Sequence: QVQLVESGGGLVQAGGSLRLSCAASGFTFWQYAMGWYRQAPGKERELVAAISGSGSSTYYADSVKGRFTISRDNAKNTVYFQMNSLKPEDTAVYYCATAISRYGRYYYWGQGTQVTVSS
- polyreactivity (PSR sort gate): high polyreactivity

Sequence: QVQLVESGGGLVQAGRSLRLSCAASGNIFIRYAMGWYRQAPGKEREVVAAISQSGGGTSYADSVKGRFTISRDNAKNTVYLQMNSLKPEDTAVYYCNARYWRYPWRFGAWVGHDYWGQGTQVTVSS
- polyreactivity (PSR sort gate): low polyreactivity

Sequence: QVQLVESGGGLVQAGGSHRLSCAAYGRIFYYYVMGWYRQAPGKERELVAVIDWSGGSTYYADSVKGRFTISRDNAKYTVYVQMNCLKPDDTAVYYCAKVWLNFSLAYEDYDYWGQGTQVNVSS
- polyreactivity (PSR sort gate): low polyreactivity

Sequence: QDQLVESGGGLVQAGGTLRLSGAASGRTFDRNAMGWYRQAPGKAWEVVAGITRSGDSTYADSVKGRFTISRDNAKNTVYLQMNSLKPEDTAVYYCNKEGTVGGTRGYWGQGTQVTVSS
- polyreactivity (PSR sort gate): low polyreactivity

Sequence: QVQLVESGGGLVQAGGSLRLSCAASGRTFSVNAMGWYRQAPGKERELVAAISWDGGSTYYADSVKGRFTISRDTAKNTVYLQMNSLKPEDTAVYYCNKDLYYAYDYWGQGTQVTVSS
- polyreactivity (PSR sort gate): low polyreactivity

Sequence: QVQRVESVGGLVQAGGSLRLICAASGRIFQVNAIGWYRQAPGKERELVAAITYSGGTTYYADSVKGRFTISRDNAKNTVYLQMNSLKPEDTAVYYCAAEGYGALGDPWQYGYEYWGQGTQVTVSS
- polyreactivity (PSR sort gate): low polyreactivity

Sequence: QVQLVESGGGLVQAGGSLRLSCAASGLISESYAMGWYRQAPGKERELVAAISSGGSTYYADSVKGRFTISRDNAKNTVYLQMNSLKPEDTAVYYCNATGYKYNYGHAYYYAVDYWGQGTQVTVSS
- polyreactivity (PSR sort gate): low polyreactivity

Sequence: QVQLVESGGGLVQAGGSLRLSCAASGSIFRSYAMGWYRQAPGKERELVAAISRRGSSTYYADSVKGRFTISRDNAKNTVYLQMNSLKPEDTAVYYCAADRVVPRGRYGGDYWGQGTQVTVSS
- polyreactivity (PSR sort gate): high polyreactivity

Sequence: QVQLVESGGGLVQAGGSLRLSCAASGLILNYYTMGWYRQAPGKERELVATISSSTGSTYYADSVKGRFTISRDNAKNTVYLQMNSLKPEDTAVYYCAADHWSYWQIYDYWGQGTQVTVSS
- polyreactivity (PSR sort gate): low polyreactivity

Sequence: QVQLVESGGGLVKAGGSLRLTCSASGSIFRRNALRCSRHAPGKERELDAAISSGGSTNYADSVKGRFTISRDNAKNTVYLQMISQKPEDSAVYYCNTRYFRRARKGDSWGQGTQVTVSS
- polyreactivity (PSR sort gate): high polyreactivity

Sequence: QVQLVESGGGLVQAGGSHRLSCAASRSIFPYNAKGWYRQAPGKATELVATISNSGGSTYYADSVKGRFTISRDTAMNTVYLQMNSLKPEDTAVYYCADDRSVYLPAPDPALDYWGQGTQLTVSS
- polyreactivity (PSR sort gate): low polyreactivity

Sequence: QVQLVESGGGLVQAGGSLRLSCAASGSIFSAYAMGWYRQAPGKERELVAAISYGGGSTYYADSVKGRFTISRDNAKNTVYLQMNSLKAEDTAVYYCAAASSGEYGYWGQGTQVTVSS
- polyreactivity (PSR sort gate): low polyreactivity

Sequence: QVQLVESGGGLLQAGGSLPLSCAASGSIFPGYAMGWYRQAPGKERELVATITWSGGSTYYADSVKGRFTISRDNAKNTVYLQMNSLNPADTAVYYCNADSNWYYQWNYYGLYDYWGQATQVTVSS
- polyreactivity (PSR sort gate): low polyreactivity

Sequence: QVQLVESGGGLDQAGGSLRLRCAASGSTFLINAMGWYRQAPGKESELVAAISSSSGNTYYADSVKWRFTISRDNAKNTVYLQMNSLKPEDTAVYYCKAVFTRGVTQYDHYYWGQGTQVTVSS
- polyreactivity (PSR sort gate): high polyreactivity

Sequence: QVQLVESGGGLVQAGGSLRLSCAASGSIIIGNTMGWYRQAPGKERELVATIRRSGSRTYYADSVKGRFTISRDNAKNTVYLQMNSLKPEDTAVYYCAADRLRTSGYKTIYDYWGQGTQVTVSS
- polyreactivity (PSR sort gate): low polyreactivity

Sequence: QVQLVESGGGLVQAGGSLRLSCAASGSIFYYNTMGWYRQAPGKERELVAAISRSGTSTFYADSVKGRFTISRDYAKNTVYLQMNSLKPEDTAVYYCNAESLGWYRLYTVDYWGQGTQVTVSS
- polyreactivity (PSR sort gate): low polyreactivity

Sequence: QVQLVESGGGLVQAGGSLRLSCAASGSTFVYYAMGWYRQAPGKERELVAVITWSGGRTYYADSVKGRFTISRDNAKNTVYVLMNSLKPEDTAVYYCAARYPGYQYGLDYWGEGTQVTVSS
- polyreactivity (PSR sort gate): high polyreactivity

Sequence: QDQLVESGGGLVQAGGSLRLSCAASGRINAMGWYRQAPGKERELVAVITLRGGSTYYADSVKGRFTISRDNAKNTVYLQMNSLKPEDTAVYYCAAETLVSFWFDYWGQGTQVTVSS
- polyreactivity (PSR sort gate): low polyreactivity

Sequence: QVQLVESGGGLVQAGGSLRLSCAASGFIFSNNAMGWYRQAPGKERELVAAITSSGGRTYYADSVKGRFTISRDNAKNTVYLQMNSLKPEDTAVYYCAAVWRTSVWTKYGYWGQGTQVTVSS
- polyreactivity (PSR sort gate): high polyreactivity

Sequence: QVQLQESGGGQVQAGGSLRLSCAASGTIFLYAFMGWYRQAPGKERELVAAIDVGTTTNYADSVKGRFTISRDNAKNTGYLQMNSLKPEDTAVYYCAANLGYLEDLGYWGQGTQVTVSS
- polyreactivity (PSR sort gate): low polyreactivity

Sequence: PVQLVESGGGLVQAGGSLRLSCAASGIIFVKYAMGWYRQAPGKERELVAAISTRGGSTYYADSVKGRFTISRDNAMNTVYLQMNSLKPEDTAVYYCAADATRKSQLPNTVPYDYWGQGTQVTVSS
- polyreactivity (PSR sort gate): high polyreactivity

Sequence: QVQLVESGGGLVQAGGSLRLSCAASGRTFWRNAMGWYRQAPGKERELVAVISVRGSSTSYADSVKGRFTISRDNAKNTVYLQMNSLKPEDTAVYYCNKASRTYGTGYDYWGQGTQVTVSS
- polyreactivity (PSR sort gate): high polyreactivity

Sequence: QEQLQESGGGLVQAGCSLRLSCAANGYIFSVEDMGRYCLAPGKEREFVATINYDTSTYYADSVKGSFTISRDNAKKTVYLQMNSLKPEDTEVYYCEAYFYAYRSPGYWGQGTQVTVSS
- polyreactivity (PSR sort gate): high polyreactivity

Sequence: QVQLVESGGGLVQAGGSLRLSCAASGRTFRIYAMGWYRHAPRKERELVAAIRWSGGTTYYADSVKGRFSISRDNAKNTVYLQMTSLKPEDTAVYYCAADSTNRYDYCGQGTQVTVSS
- polyreactivity (PSR sort gate): high polyreactivity
